Experimental data reported in patent US10000775B2, “Biosynthesis of 1-undecene and related terminal olefins” (The Regents of the University of California, priority 2013, dated 2018).

Key:
[1] = test system: E. coli; test: 1-undecene production in E. coli overexpressing PFL_4321, PFL_0203 or homologs, with or without UcFatB2; assay type: cell-based; conditions: E. coli, one-day shake flask culture in LB media without exogenous lauric acid
Method: E. coli, P. aeruginosa PAO-1, and P. aeruginosa PA14 strains were grown in 5 mL of LB medium overnight at 37° C., while all the other Pseudomonas and Acinetobacter strains were grown at 30° C. […] The culture was shaken in a sealed 20 mL headspace vial (Agilent certified) containing a stir bar at 30° C. for 36 hr. After incubation, an SPME fiber (30 μm polydimethylsiloxane, Supelco, Sigma-Aldrich Group, Bellefonte, Pa.) was manually inserted into the headspace vial and incubated at 25° C. for 12.5 min. GC-MS analysis was conducted on a Varian CP-3800 instrument equipped with a Varian 320-MS. […] The signals of the 1-alkenes were identified and quantified by comparison with authentic samples (MP Biomedicals), which were diluted in ethyl acetate, added to 5 mL of culture medium in a sealed headspace vial, and sampled by the same SPME-GCMS method as described above.
[…] 1-Undecene production was detected by using the SPME-GCMS method. […]
To investigate whether PFL_0203 was facilitating the production of 1-undecene, this gene was individually expressed in E. coli and the cells were monitored for 1-undecene production. […]

[2] = In vitro 1-undecene production by purified PFL_0203 with E. coli crude extract; assay type: biochemical; conditions: purified PFL_0203 mixed with E. coli crude extract and exogenous lauric acid
[3] = In vitro activity of PFL_4321 and PFL_0203 toward fatty acids with various chain lengths; assay type: biochemical; parameters: key to In vitro activity toward C8:0 / In vitro activity toward C10:0 / In vitro activity toward C12:0 / In vitro activity toward C14:0 / In vitro activity toward C16:0: ✓: indicates production of the corresponding 1-alkene from the indicated substrate; x: indicates failure to produce the corresponding 1-alkene from the indicated substrate
Method: A typical condition is as follows: 1 mL of reaction mixture contains 50 mM MES buffer (pH 6.2), 300 mM NaCl, 100 μM (NH4)2Fe(SO4)2, 1 mM ascorbic acid, 100 μM fatty acid substrate or analogs, and 10 μM enzyme. The reaction was performed in a sealed headspace vial at 30° C., initiated by adding lauric acid and quenched by injecting equal volume of 5 M NaOH. 1-Undecene production was analyzed and quantified by using the SPME-GCMS method. To determine the kinetic parameters of PFL_4321 on lauric acid, initial velocities at 1, 10, 20, 50, 100, and 150 μM of lauric acid were measured (25 mM lauric acid solution was prepared by adding 0.5% tergitol and heating at 65° C. for 10 min). The reactions were quenched at 2, 4, 6, 8, and 10 seconds, and the acquired turnover rates were fit to the Michaelis-Menten equation using GraphPad Prism to obtain kcat and Km. The kcat and Km of myristic acid and capric acid were determined similarly.
Unless otherwise noted, all experiments with PFL_0203 as described herein were performed using similar assays, procedures, and techniques as used in a given corresponding experiment as described in Example 1.
The fatty acid substrate specificity of PFL_0203 was investigated in a series of in vitro experiments. […] Thus, PFL_4321 and PFL_0203 share some overlap in suitable substrates; PFL_4321 is able to act on C10-C14 fatty acid substrates, and PFL_0203 is able to act on C10-C16 fatty acid substrates.

B1: PFL_0203: hypothetical membrane-associated protein from Pseudomonas fluorescens Pf-5 converting C10-C16 fatty acids into 1-alkenes (protein, listed as Pseudomonas protegens)
chain: MQGISASPERMNAQQRAAHVRQVVLARGDELRRRFPLLRHQDALGAGILAFALSGMLGSALLYVTGHLAWWACLLLNAFFASLTHELEHDLIHSMYFRKQRLPHNLMLGLVWLARPSTINPWVRRHLHLNHHKVSGSESDIEERAITNGEPWGIARLLMVGDNMMAAFIRLLRAPGARRKLGILVRTLAVYAPLALLHWGAWYVFLGFHGANGVAALLGSPIQWSQDTASLMHYVDIAVVVIIGPNVLRTFCLHFVSSNMHYYGDIEPGNVIQQTQVLNPWWMWPLQAFCCNFGSTHGIHHFVVREPFYIRQMTASVAHKVMAEMGVRFNDFGTFARANRFTRQEREAMQPAHNARA
- titer of 1-undecene [1]: ~0.2 µg/mL
- 1-undecene production [2]: resulted in 1-undecene production
- activity on C8 or C18 fatty acids ([3]; in vitro, C8 or C18 fatty acids): failed to act
- conversion of C10-C16 fatty acids into their corresponding [M-1] 1-alkenes ([3]; in vitro, C10-C16 fatty acids): converted
- In vitro activity toward C8:0 ([3]; substrate C8:0): x
- In vitro activity toward C10:0 ([3]; substrate C10:0): trace
- In vitro activity toward C12:0 ([3]; substrate C12:0): ✓
- In vitro activity toward C14:0 ([3]; substrate C14:0): ✓
- In vitro activity toward C16:0 ([3]; substrate C16:0): trace
